Experiment [1] deals with T1, cynomolgus monkey CD46 (cynomolgus monkey, UniProt A0A2K5WCL8 35-377).
T1 construct: whole, on cells; also called cyno monkey CD46; CHO-cynoCD46
T1 sequence: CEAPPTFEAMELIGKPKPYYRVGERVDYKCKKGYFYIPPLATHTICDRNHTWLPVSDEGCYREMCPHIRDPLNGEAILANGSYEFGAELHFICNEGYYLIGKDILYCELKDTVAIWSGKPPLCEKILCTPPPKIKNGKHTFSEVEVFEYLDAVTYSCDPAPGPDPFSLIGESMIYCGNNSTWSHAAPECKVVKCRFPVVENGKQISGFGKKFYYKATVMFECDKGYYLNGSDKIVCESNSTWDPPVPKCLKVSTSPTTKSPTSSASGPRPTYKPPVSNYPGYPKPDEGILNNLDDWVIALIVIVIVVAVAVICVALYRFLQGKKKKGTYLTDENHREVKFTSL
Put plainly: FACS on CHO-cynoCD46 cells, 4 C overnight, MFI against antibody concentration. The protocol:
(§1) FIGS. 6. YS5 KD measurement on CHO cells transfected with cynomolgus monkey CD46. YS5 was incubated with CHO-cynoCD46 cells at 4° C. overnight and binding analyzed by FACS.

The target of experiment [2] is T2, recombinant Fc fusion protein composed of the Sushi domain 1 and 2 of human CD46 (human, UniProt P15529 35-159).
T2 construct: domain: Sushi domain 1 and 2; Produced in HEK293 cells, purified by protein A; also called CD46-Fc fusion; recombinant CD46-Fc fusion protein; not shown: Fc part
T2 sequence (looked up): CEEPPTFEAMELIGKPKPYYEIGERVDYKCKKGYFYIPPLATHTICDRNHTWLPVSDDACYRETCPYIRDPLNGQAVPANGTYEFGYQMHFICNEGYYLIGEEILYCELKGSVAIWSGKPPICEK
In words: phage and yeast display selection and FACS screening with recombinant CD46-Fc fusion. The text has this: To identify novel anti-human CD46 antibodies, a recombinant Fc fusion protein composed of the Sushi domain 1 and 2 of human CD46 was created. As complement elements bind predominantly to domain 3 and 4, the choice of domain 1 and 2 minimize selection of antibodies that could potently interfere with normal complement function. This CD46-Fc fusion was produced and purified from transfected HEK293 cells by protein A affinity chromatography. For human antibody selection, a 5×10⁹ member phagemid display library was created using cDNAs pooled from peripheral blood mononuclear cells of 426 healthy human donors, and the library was selected the recombinant CD46-Fc fusion protein. Following three rounds of selection, binding phagemid were screened by FACS and sequenced. In parallel, an alternatively strategy was employed that involve first selecting the library on live tumor cells followed by transferring the output from round 1 phagemid selection into a yeast surface display vector, and then FACS-based selection using low concentration ligands to enrich high affinity binders to the recombinant CD46-Fc fusion protein. The resulting antibodies bind with high affinity to both live tumor cells and the recombinant human CD46 protein.

Experiment [3] has as its target T1, cynomolgus monkey CD46. In words: FACS on CHO cells transfected with cynomolgus monkey CD46, 4 °C overnight, MFI curve fit. As to the method: as §1

Results on one molecule are retold here after patent publication US20170362330A1 (University of California, published 2017).

In general, EC50 (read off the curve) refers to the midpoint of the concentration-response curve. What is called Kd is the equilibrium constant for the complex coming apart.

B1: YS5 (antibody, V domains shown)
VH: QVQLVQSGGGVVQPGRSLRLACAASGLTVNNYAMHWVRQAPGKGLEWVAVISYDGNNKYYADSVKGRFTISRDNSKNTLYLQMNSLRAEDTAVYYCAKGGGYFDLWGRGTLVTVSS
VL: QSVLTQPPSVSGAPGQRVTISCTGSSSNIGAGYDVHWYQQLPGTAPKLLIYGNNNRPSGVPDRFSGSKSGTSASLAITGLQAEDEADYYCSSYTSGTWLFGGGTKLTVL
notes: Human scFv from phage/yeast display, converted into full human IgG1; also called YS5 IgG1; anti-CD46 antibody (YS5)
As to B1, in the experiment with cynomolgus monkey CD46 [1], the “EC50 (read off the curve)” value was roughly 2 nM. The binding result in experiment [2] was “binds”. The same molecule came in with a Kd in the experiment with cynomolgus monkey CD46 [3] of 1.95 nM.
